Assay [1] has as its target human thyroid-stimulating hormone receptor (TSHR) (human) (UniProt P16473). Kind of assay: cell-based or functional assay.
Assay [2] has as its target human thyroid-stimulating hormone receptor (TSHR) (human, UniProt P16473 21-764). Description: cell-based or functional assay.

This is an account of results in patent US20220227875A1 (UNIVERSITY OF FLORIDA RESEARCH FOUNDATION, published 2022).

In assay [1], “recombinant thyroid-stimulating hormone (TSH) (ligand)” registered a cAMP levels in HEK-TSHR cells, EC50 of 0.168 µg/mL.
Turning to thyroid-stimulating antibody M22, the cAMP levels in HEK-TSHR cells, EC50 in assay [1] was 42.5 µg/mL.

B1: K1-70 thyroid blocking antibody (commercially available K1-70 antibody) (antibody, V domains shown)
VH: EVQLVQSGAEVKKPGQSLKISCKASGYSLTDNWIGWVRQKPGKGLEWMGIIYPGDSDTRYSPSFQGQVTISADKSINTAYLQWSSLKASDTAIYYCVGLDWNYNPLRYWGPGTLVTVSS
VL: QSVLTQPPSVSAAPGQKVTISCSGSSSDIGSNYVSWYQQFPGTAPKLLIYDNNKRPSAIPDRFSGSKSGTSATLGITGLQTGDEADYYCGTWDSRLGIAVFGGGTQLTVLG
With B1, in assay [2], the “inhibition of M22 (100 ng/ml)-induced cAMP in HEK-TSHR cells, IC50” value amounted to 1.38 µg/mL and the “inhibition of TSH (150 ng/ml)-induced cAMP in HEK-TSHR cells, IC50” value was 1.18 µg/mL.
